Data on 1 substance can be found in article doi:10.1101/2023.12.06.569572.

The target in the experiment is Neurofibromin (NF1), recombinant full-length NF1 isoform 2 (human) (UniProt P21359). Put plainly: mass photometry. The following applies: remark: other sources report otherwise.

In the case of “Neurofibromin (NF1), recombinant full-length NF1 isoform 2, P21359 1-2839”, the stoichiometry N (in general, a count of units in the complex or per binding partner) was determined as 2.
